From publication doi:10.1101/2025.11.19.689067 (bioRxiv, 2025)

T1: DENV2 NS1 (recombinant, biotinylated, on Luminex beads) (dengue virus serotype 2, UniProt P29990 776-1127)
T1 sequence: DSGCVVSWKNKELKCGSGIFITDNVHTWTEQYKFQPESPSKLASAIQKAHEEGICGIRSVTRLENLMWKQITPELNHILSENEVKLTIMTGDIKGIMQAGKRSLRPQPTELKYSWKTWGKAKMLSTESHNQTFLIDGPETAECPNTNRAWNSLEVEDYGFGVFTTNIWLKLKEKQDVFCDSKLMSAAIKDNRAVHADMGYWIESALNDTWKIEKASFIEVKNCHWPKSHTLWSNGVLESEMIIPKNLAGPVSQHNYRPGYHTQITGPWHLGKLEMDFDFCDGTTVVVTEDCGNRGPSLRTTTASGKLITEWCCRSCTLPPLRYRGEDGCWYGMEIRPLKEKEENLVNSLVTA


Assays:
Test in all cases: bead-based binding assay (Luminex)
[1] = target: DENV2 NS1 wing-Halotag (residues 30-174) (dengue virus serotype 2)
[2] = target: DENV2 NS1 β-ladder-Halotag (residues 178-352) (dengue virus serotype 2)
[3] = target: T1, DENV2 NS1 (recombinant, biotinylated, …); conditions: both partners purified

Row | Molecule | fold relative binding (EFNB1 Fc over Gluc Fc) [1] [fold] | fold relative binding (EFNB1 Fc over Gluc Fc) [2] [fold] | fold binding over the Gluc-Fc negative control [3] [fold]
1 | EFNB1 RBD-Fc fusion protein (from UniProt P98172 28-164) | 50 | 15 | 
2 | EFNB1 RBD-Fc fusion protein (Fc fusion) LAKNLEPVSWSSLNPKFLSGKGLVIYPKIGDKLDIICPRAEAGRPYEYYKLYLVRPEQAAACSTVLDPNVLVTCNRPEQEIRFTIKFQEFSPNYMGLEFKKHHDYYITSTSNGSLEGLENREGGVCRTRTMKIIMKV |  |  | 40
